The target in this data set is TevCas9 H557A (I-TevI domain-linker-SaCas9 H557A nickase) (Enterobacteria phage T4 / Staphylococcus aureus) (UniProt P13299+J7RUA5). The data set is described as follows: cleavage_in_vitro.

From patent US20220195404 come the findings set out here.

“EGFR guide RNA ; EGFR exon 19 deletion DNA substrate” had a binding signal (fold rate vs wild-type EGFR) (faster cleavage of exon 19 deletion, PAM not stated) of 4.

“EGFR guide RNA ; EGFR wild-type DNA substrate” displayed a relative cleavage rate (fold rate (reference)) (4-fold slower than exon 19 deletion substrate) of 1.
